Numbering of substitutions follows the chain as printed.
B1: C4.1131 (antibody, V domains shown)
VH: EVKLVESDGGLVQPRKSLKLSCAASGFTFTDYYMAWVRQGPTMGLEWVATISNDGSTKYYRDSVKGRFTLSRDNAKTTLHLQMDSLRSEDTATYYCARLTIRYKGVMDAWGQGASVTVSS
VL: DVVMTQSPSHLAASPGESVSINCKASKNIYKYLAWYQQKPGKTNKLLIYSGSTLQSGTPSRFSGSGSGSDFTLTIRNLEPEDFGLYYCQHHNEYPPTFGGGTKLEIK
B2: C4.1134 (antibody, V domains shown)
VH: EVQLVESDGGLVQPGRSLKLSCAASGFTFSDFYMAWVRQAPTKGLEWIATISHDGRNTFYRDSVKGRFTISRDNAKRALYLQMDSLRSEDTATYYCASLTTRYKGVMEAWGQGASVTVSS
VL: B1 VL
B3: C4.1152 (antibody, V domains shown)
VH: B2 VH with Q3K, T50S, F59Y, A78T, T101A, E108G, A114T, S115L
VL: B1 VL
B4: C4.1054 (antibody, V domains shown)
VH: QVQLLQSGAALVKPGASVKMSCKPSGYTFTDYWVSWVKQSHGKSLEWIGEIYPNNGATNFNEKFKGKATLTVDKSTSTAYMELSRLTSEDSAIYYCPSRKYGYNWNFDYWGQGTMVTVSS
VL: DIVLTQSPALAVSLGQRATISCRARQSVSISRYNLMHWYQQKPGQQPKVLIYRASNLASGIPARFSGSGSGTDFTLTIDPVQADDIATYYCQQSRDSPWTFGGGTKLELK

What follows are molecules tested on cynomolgus ABCC4 (assay: Flow cytometry (FACS) binding to C6 cells stably transfected to express cynomolgus ABCC4 (different experiment, different C6.cC4 cell line, Table 4)). Details: Table 4 study, stated in words.
Procedure, shortened: (§1)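 Murine C6 cells stably expressing FLAG-tagged human or cynomolgus ABCC4 incubated 30 min on ice with antibodies, either 5 ug/mL or serially diluted from 100 ug/mL, in PBS+2% FBS+0.02% azide. Detection with PE anti-human IgG F(ab′)2 by flow cytometry; EC50 at half-maximal MFI; negative below background, positive >3× background.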

| Molecule | binding to cynomolgus ABCC4 expressed on cell surface |
| --- | --- |
| B1 | bind to both human and cynomolgus ABCC4 |
| B2 | bind to both human and cynomolgus ABCC4 |
| B3 | bind to both human and cynomolgus ABCC4 |
| B4 | bind to both human and cynomolgus ABCC4 |

Same assay, conditions: different C6.cC4 cell line, C6 cells stably transfected to express cynomolgus ABCC4, FACS; Table 4

| Molecule | Cynomolgus ABCC4 binding |
| --- | --- |
| B1 | + (Positive (+)=MFI>3× background level) |
| B2 | + (Positive (+)=MFI>3× background level) |
| B3 | + (Positive (+)=MFI>3× background level) |
| B4 | + (Positive (+)=MFI>3× background level) |

Each molecule was assayed against T1, human ABCC4 (human, UniProt O15439 1-1325) (assay: FACS, C6 cells stably expressing human ABCC4; + = MFI>3x background). Details: not given.
T1 construct: Expressed on murine C6 cells stably transfected with human ABCC4 cDNA with C-terminal FLAG tag; also called MRP4; Multidrug resistance protein 4; not shown: C-terminal fused FLAG tag
T1 sequence: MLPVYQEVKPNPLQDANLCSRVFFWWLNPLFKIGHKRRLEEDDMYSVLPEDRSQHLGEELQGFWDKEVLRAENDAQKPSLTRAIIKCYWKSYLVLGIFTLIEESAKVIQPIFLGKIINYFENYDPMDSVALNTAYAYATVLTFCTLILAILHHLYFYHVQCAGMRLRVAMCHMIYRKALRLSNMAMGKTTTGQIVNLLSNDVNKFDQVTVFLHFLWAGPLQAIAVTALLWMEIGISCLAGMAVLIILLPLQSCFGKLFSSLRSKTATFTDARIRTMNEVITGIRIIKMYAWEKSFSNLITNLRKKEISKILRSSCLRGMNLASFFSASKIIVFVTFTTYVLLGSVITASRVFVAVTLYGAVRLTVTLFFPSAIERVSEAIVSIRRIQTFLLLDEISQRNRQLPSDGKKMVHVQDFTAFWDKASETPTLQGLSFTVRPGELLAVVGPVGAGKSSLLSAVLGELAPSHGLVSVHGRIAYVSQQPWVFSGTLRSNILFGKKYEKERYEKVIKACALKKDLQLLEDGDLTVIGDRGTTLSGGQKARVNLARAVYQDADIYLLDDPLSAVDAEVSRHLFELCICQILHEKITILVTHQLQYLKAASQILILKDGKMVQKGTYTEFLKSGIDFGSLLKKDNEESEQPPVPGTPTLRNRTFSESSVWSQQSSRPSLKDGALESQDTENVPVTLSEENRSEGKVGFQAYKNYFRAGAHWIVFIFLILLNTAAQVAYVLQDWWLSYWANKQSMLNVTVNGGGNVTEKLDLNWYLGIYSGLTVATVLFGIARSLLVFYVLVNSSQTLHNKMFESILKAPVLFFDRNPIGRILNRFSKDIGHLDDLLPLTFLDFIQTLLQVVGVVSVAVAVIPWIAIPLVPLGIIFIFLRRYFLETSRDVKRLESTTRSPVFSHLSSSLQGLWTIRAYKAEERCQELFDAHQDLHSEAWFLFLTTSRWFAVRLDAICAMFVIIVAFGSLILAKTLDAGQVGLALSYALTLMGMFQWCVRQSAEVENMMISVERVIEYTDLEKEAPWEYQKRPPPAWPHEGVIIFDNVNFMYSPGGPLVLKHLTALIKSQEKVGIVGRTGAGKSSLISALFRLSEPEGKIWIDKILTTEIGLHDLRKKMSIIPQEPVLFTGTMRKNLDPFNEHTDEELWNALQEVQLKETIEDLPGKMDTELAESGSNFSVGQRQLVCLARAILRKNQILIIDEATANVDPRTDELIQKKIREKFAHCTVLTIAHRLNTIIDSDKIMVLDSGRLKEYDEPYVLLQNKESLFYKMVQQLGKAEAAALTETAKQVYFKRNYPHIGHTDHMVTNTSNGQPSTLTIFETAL
Protocol: Antibody binding to cells was evaluated by flow cytometry. Murine C6 cells stably transfected to express human or cynomolgus ABCC4 were washed once in flow cytometry buffer (PBS+2% FBS+0.02% sodium azide), resuspended at 2×10\hat{ }6 cells/mL in flow cytometry buffer, and dispensed into 96-well microtiter plates at 0.1 mL/well. Recombinant antibodies were added to cells at 5 ug/mL for initial binding confirmation, or serially diluted from 100 ug/mL in flow cytometry buffer. After incubating cells on ice for 30 min, cells were washed twice with flow cytometry buffer. Bound antibody was detected with PE-labeled F(ab′)₂ fragment goat anti-human IgG (Jackson ImmunoResearch) and evaluated on an Attune N×T flow cytometer. EC50 is calculated to be the concentration of antibody that gives half maximal response.

| Molecule | binding result |
| --- | --- |
| B1 | binds |
| B2 | binds |
| B3 | binds |
| B4 | binds |

The molecules below were run against T2, human ABCC4 (Homo sapiens, UniProt O15439) (assay: Flow cytometry (FACS) binding to C6 cells stably transfected to express human ABCC4 (different experiment, Table 4)). Details: C6 cells stably transfected to express human ABCC4, FACS; different experiment, Table 4.
T2 construct: expressed in transfected cells
T2 sequence (O15439 1-1325): T1 sequence
Procedure, shortened: as §1

| Molecule | Human ABCC4 binding |
| --- | --- |
| B1 | + (Positive (+)=MFI>3× background level) |
| B2 | + (Positive (+)=MFI>3× background level) |
| B3 | + (Positive (+)=MFI>3× background level) |
| B4 | + (Positive (+)=MFI>3× background level) |

Same assay, conditions: Table 4 study, stated in words

| Molecule | binding to human ABCC4 expressed on cell surface |
| --- | --- |
| B1 | bind to both human and cynomolgus ABCC4 |
| B2 | bind to both human and cynomolgus ABCC4 |
| B3 | bind to both human and cynomolgus ABCC4 |
| B4 | bind to both human and cynomolgus ABCC4 |

— patent US20240010747A1, “ANTI-MRP4 (ENCODED BY ABCC4 GENE) ANTIBODIES AND USES THEREOF” (Kenjockety Biotechnology, Inc., priority 2020, published 2024)
